Reference: the supplement of paper PMC12042874
± gives the uncertainty stated by the source.

Experiment: amyloid nucleation score (Sup35N fusion, yeast selection) (log enrichment); library NNK3; higher = more nucleation; inactive = no reads after selection
How it was run: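 Libraries of peptides of 20 random codons fused to Sup35N were expressed in psi-negative yeast and induced 24 hours with 100 μM copper sulfate. Selection was 7 days at 30°C on medium lacking adenine and uracil, and plasmid inserts were Illumina-sequenced before and after selection. Nucleation score is the DiMSum log enrichment of output over input reads, centred on the mode score of non-aggregating sequences, and sequences with under 100 input reads were left out.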

Substance | amyloid nucleation score
EKITFGECWKACSAF | inactive
VCSLVLWSLSSWWTRYGTLR | inactive
TCSTGAGNFCVCDFRLVRMR | inactive
LKDAHQWIYLW | -0.779 ± 0.88
DLSREQLGCVVGVQAECMKG | 0.37 ± 0.41
VCREGLRDSRSAGGFFSYII | inactive
RLMNFVPSFVFCCFYKK | 1.27 ± 0.14
FKNCHGVVTRCQW | inactive
AYLSFLLFCCCKTLVWLVLR | 0.841 ± 0.13
DVMEVNLVPRAFNLCSSSGL | inactive
FIVLCALLWFCLNWSDLLKF | inactive
IMNSPKGYTILWRGSLRGIQ | inactive
SGKFTSGLIVRSASIGLYST | 0.747 ± 0.26
CTRITHGGGVTSLRNTSESN | inactive
CKSDFCISNVLWLYGLKFQR | inactive
YFKYTN | 1.32 ± 0.15
PAVPLQSNLRRETTFRAGCL | inactive
KKVLN | inactive
VYIVSDTRMATASFG | -0.773 ± 1.3
CELGNIVHS | inactive
LFKDSIVLIGILYCMFNLHD | inactive
SMKFC | inactive
YSCLRLYATNHVTLWICELK | inactive
WFASNPIMLPSFYLIPWKRT | inactive
CLRMGYVLRSRWERLDCLKW | inactive
VGSGTQSWVRNEMRSMLDLW | inactive
LGRKIRFFGYSGWGCMIREY | inactive

Substance | amyloid nucleation score
GIVILLNYHPIRLF | 2.2 ± 0.068
TIFSIDFIIVYT | 1.81 ± 0.057
AVRFNHAYISQKPQRMLL | inactive
SDRLS | inactive
ALEAFKRFNLYELGCKGIKV | inactive
SLILALFSGISSDF | 0.122 ± 0.37
PPPCKYLPAEVGLLFKSSLG | inactive
KMSSHFV | inactive
MGLGGHIVLSGCSWFMYHIG | inactive
NTVSHMY | inactive
RGSDIMAFAVDYTDNKSECS | inactive
IWMWLKTQSISRLGTGRTTN | inactive
KARANFVYAKFHFTRAP | inactive
ICLCLHCIYSRSITSAVLSA | inactive
SGSAQLECASSRAYVMIVHL | 0.425 ± 0.18
PTELYFHPDI | inactive
MCYQNMR | inactive
FSDRRSINPELEF | inactive
IIYMMLYVKEGMSWTSLPDQ | inactive
SSGHMICIYYQLVHIIVRLC | inactive
VAGSRCMDAWVKWCMVIRMF | 0.247 ± 0.25
YNERLALLGLMVSLNVSSHS | inactive
LDFYRTFNDSIFKMGPLCLS | inactive
VDETPSSHMSIPVMERVLCG | inactive
SSAELV | inactive
VCFFGLYVLKDN | inactive
LYRLPRGYIRGGLLMLSS | inactive

Substance | amyloid nucleation score
GKNSCCKLIVWDEVFGLKLC | inactive
VKNFLGY | inactive
VQLPVIVSAPPI | -0.421 ± 1.1
FKRCSSIVRGWSS | inactive
RSGSLIGAVYRNMVVLNRMG | inactive
FRRSVK | inactive
VNWRVRWIYSILGKS | inactive
RCVIMTPLAIREHDNDASCQ | inactive
IKTGYSTHDPNHVDNTIRSR | inactive
VFWLKVSVSLFPVLYGRS | inactive
PATMFI | inactive
NFRFPTNGNYGNYLKKESFV | inactive
ENTAYWDLSGRLANQLGWRL | inactive
SYVAVPR | inactive
LLTYHTSGYSCWSEG | inactive
AYNFEHFPDETSAQGHVY | inactive
SVIYIWDG | 0.425 ± 0.43
RYCVS | inactive
IWFWKGICLRYTSRKGMNLR | 1.75 ± 0.11
LLPLFHNVIIGNCLFGCEPP | 1.62 ± 0.11
AGVNLRTIRVMYRLPIISYL | inactive
SFNHCM | inactive
EKYWNN | inactive
RCNHSCFGSIMGCVVLCPGE | 1.33 ± 0.13
GCNYTVSTYILRVSDFTYYM | -0.585 ± 0.76
